Experimental data published in patent US20050113284A1, “Drug for regenerating tissue and vessel and method therefor” (priority 2001, published 2005).

Molecular target: mouse HGF receptor c-Met (endogenous in mouse hepatocytes and liver) (mouse) (UniProt P16056)
Test: cell-based or functional assay

For “full-length mouse MERMUC overexpressed in MERMUC-Tg mice (from UniProt Q8BUE7 22-656)”, the ratio of liver weight to body weight after transient overexpression of human HGF was 1.2 times.
